Laboratory results: patent US20260193335A1 (ZOETIS SERVICES, published 2026)
Changes are numbered by the printed parent chain. Numbers in names are those of the source.

B1: mAb3 (felinized anti-NGF antibody ZTS-768) S428A, feline IgG1a (antibody)
heavy: DVQLVESGGDLVKPGGSLRLTCVASGFTYSNYWMHWVRQAPGKGLQWVARIDPYGGGTKHNEKFKRRFTISRDNAKNTLYLQMNSLKTEDTATYYCVRSGYDYYFDVWGQGTLVTVSSASTTAPSVFPLAPSCGTTSGATVALACLVLGYFPEPVTVSWNSGALTSGVHTFPAVLQASGLYSLSSMVTVPSSRWLSDTFTCNVAHPPSNTKVDKTVRKTDHPPGPKPCDCPKCPPPEMLGGPSIFIFPPKPKDTLSISRTPEVTCLVVDLGPDDSDVQITWFVDNTQVYTAKTSPREEQFNSTYRVVSVLPILHQDWLKGKEFKCKVNSKSLPSPIERTISKAKGQPHEPQVYVLPPAQEELSRNKVSVTCLIKSFHPPDIAVEWEITGQPEPENNYRTTPPQLDSDGTYFVYSKLSVDRSHWQRGNTYTCSVAHEALHSHHTQKSLTQSPGK
light: EIQMTQSPSSLSASPGDRVTITCRASENIYSFLAWYQQKPGKVPKLLIYNANTLAEGVPSRFSGSGSGTDFTLTISSLEPEDAATYYCQHHFGTPFTFGSGTKLEIKRSDAQPSVFLFQPSLDELHTGSASIVCILNDFYPKEVNVKWKVDGVVQNKGIQESTTEQNSKDSTYSLSSTLTMSSTEYQSHEKFSCEVTHKSLASTLVKSFQRSECQRE
notes: also called mAb3 ID No. 89
B2: mAb3 (felinized anti-NGF antibody ZTS-768) S428L, feline IgG1a (antibody)
heavy: B1 heavy with A434L
light: B1 light
notes: also called mAb3 ID No. 98
B3: mAb3 (felinized anti-NGF antibody ZTS-768) S428T, feline IgG1a (antibody)
heavy: B1 heavy with A434T
light: B1 light
notes: also called mAb3 ID No. 104
B4: mAb3 (felinized anti-NGF antibody ZTS-768) S428I, feline IgG1a (antibody)
heavy: B1 heavy with A434I
light: B1 light
notes: also called mAb3 ID No. 96
B5: mAb3 (felinized anti-NGF antibody ZTS-768) S428L and S434W, feline IgG1a (antibody)
heavy: B1 heavy with A434L, S440W
light: B1 light
notes: also called mAb3 ID No. 113
B6: mAb3 (felinized anti-NGF antibody ZTS-768) S428L and S434P, feline IgG1a (antibody)
heavy: B1 heavy with A434L, S440P
light: B1 light
B7: mAb3 (felinized anti-NGF antibody ZTS-768) S428M, feline IgG1a (antibody)
heavy: B1 heavy with A434M
light: B1 light
notes: also called mAb3 ID No. 99
B8: mAb3 (felinized anti-NGF antibody ZTS-768) S428K, feline IgG1a (antibody)
heavy: B1 heavy with A434K
light: B1 light
notes: also called mAb3 ID No. 97
B9: mAb3 (felinized anti-NGF antibody ZTS-768) S428N, feline IgG1a (antibody)
heavy: B1 heavy with A434N
light: B1 light
notes: also called mAb3 ID No. 100
B10: mAb3 (felinized anti-NGF antibody ZTS-768) S428Y and S434L, feline IgG1a (antibody)
heavy: B1 heavy with A434Y, S440L
light: B1 light
notes: also called mAb3 ID No. 116
B11: mAb3 (felinized anti-NGF antibody ZTS-768) S428E, feline IgG1a (antibody)
heavy: B1 heavy with A434E
light: B1 light
notes: also called mAb3 ID No. 92
B12: mAb3 (felinized anti-NGF antibody ZTS-768) S428V, feline IgG1a (antibody)
heavy: B1 heavy with A434V
light: B1 light
notes: also called mAb3 ID No. 105
B13: mAb3 (felinized anti-NGF antibody ZTS-768) S428W, feline IgG1a (antibody)
heavy: B1 heavy with A434W
light: B1 light
B14: mAb3 (felinized anti-NGF antibody ZTS-768) S428L and S434L, feline IgG1a (antibody)
heavy: B1 heavy with A434L, S440L
light: B1 light
notes: also called mAb3 ID No. 111
B15: mAb3 (felinized anti-NGF antibody ZTS-768) S428R, feline IgG1a (antibody)
heavy: B1 heavy with A434R
light: B1 light
notes: also called mAb3 ID No. 103
B16: mAb3 (felinized anti-NGF antibody ZTS-768) S428D, feline IgG1a (antibody)
heavy: B1 heavy with A434D
light: B1 light
notes: also called mAb3 ID No. 91
B17: mAb3 (felinized anti-NGF antibody ZTS-768) S428Y and S434H, feline IgG1a (antibody)
heavy: B1 heavy with A434Y, S440H
light: B1 light
notes: also called mAb3 ID No. 114
B18: mAb3 (felinized anti-NGF antibody ZTS-768) S428Q, feline IgG1a (antibody)
heavy: B1 heavy with A434Q
light: B1 light
B19: mAb3 (felinized anti-NGF antibody ZTS-768) S428C, feline IgG1a (antibody)
heavy: B1 heavy with A434C
light: B1 light
notes: also called mAb3 ID No. 90
B20: mAb3 (felinized anti-NGF antibody ZTS-768) S428Y, feline IgG1a (antibody)
heavy: B1 heavy with A434Y
light: B1 light
B21: mAb3 (felinized anti-NGF antibody ZTS-768) S428H, feline IgG1a (antibody)
heavy: B1 heavy with A434H
light: B1 light
notes: also called mAb3 ID No. 95
B22: mAb3 (felinized anti-NGF antibody ZTS-768) S428Y and S434P, feline IgG1a (antibody)
heavy: B1 heavy with A434Y, S440P
light: B1 light
B23: mAb3 (felinized anti-NGF antibody ZTS-768) S428L and S434H, feline IgG1a (antibody)
heavy: B1 heavy with A434L, S440H
light: B1 light
notes: also called mAb3 ID No. 109
B24: mAb3 (felinized anti-NGF antibody ZTS-768) S428Y and S434F, feline IgG1a (antibody)
heavy: B1 heavy with A434Y, S440F
light: B1 light
notes: also called mAb3 ID No. 115
B25: mAb3 (felinized anti-NGF antibody ZTS-768) S428Y and S434W, feline IgG1a (antibody)
heavy: B1 heavy with A434Y, S440W
light: B1 light
B26: mAb3 (felinized anti-NGF antibody ZTS-768) S428L and S434F, feline IgG1a (antibody)
heavy: B1 heavy with A434L, S440F
light: B1 light
notes: also called mAb3 ID No. 110
B27: mAb3 (felinized anti-NGF antibody ZTS-768) S428G, feline IgG1a (antibody)
heavy: B1 heavy with A434G
light: B1 light
notes: also called mAb3 ID No. 94
B28: mAb3 (felinized anti-NGF antibody ZTS-768) S428P, feline IgG1a (antibody)
heavy: B1 heavy with A434P
light: B1 light
notes: also called mAb3 ID No. 101
B29: mAb3 (felinized anti-NGF antibody ZTS-768) S428F, feline IgG1a (antibody)
heavy: B1 heavy with A434F
light: B1 light
notes: also called mAb3 ID No. 93

target: T1, Feline FcRn (complex of FcRn-α subunit and β-microglobulin, C-terminal His tag) (feline, UniProt A0ABI7ZNY9 23-296; Q5MGS7 21-118); test: SPR Biacore, biotin-FcRn on SA chip, pH 6
T1 construct: treated here as one molecule
Method: Feline FcRn was isolated, prepared and mutant Fc IgGs were assayed against feline FcRn according to Strietzel et. al., discussed above. Standard PCR was used to amplify feline FcRn-α subunit and β-microglobulin. FcRn-α subunit and β-microglobulin were co-transfected into HEK 293 cells and the FcRn complex was purified by IMAC affinity purification via the c-terminal His tag. FcRn complex was biotin labeled through BirA enzymatic biotinylatoin reaction. KD's were measured by Biacore T200 (GE Healthcare, Pittsburgh, PA, USA) or Biacore 8K (Cytiva, Marlborough, MA, USA) using a SA sensor chip.
FcRn was captured on the surface of the sensor using a modified SA capture method. 10 mM MES; 150 mM NaCl; 0.005% Tween20; 0.5 mg/mL BSA; pH6 was used as capture, method running buffer and titrations. 1×HBS-P, 0.5 mg/mL BSA; pH7.4 was also used for method running buffer and titrations. Fc mutant IgGs were flowed over receptor surfaces and affinity was determined using T200 evaluation software or Biacore Insight Evaluation software. Blank runs containing buffer only were subtracted out from all runs. Flow cells were regenerated using 50 mM Tris pH8 or pH9. Runs were performed at 15° C.

Binder | Kd [nM]
B1 | 22.3
B2 | 15.4
B3 | 25.8
B4 | 22.2
B5 | 23.6
B6 | 18.8
B7 | 6.89
B8 | 22.2
B9 | 11.2
B10 | 34.3
B11 | 57.4
B12 | 17.1
B13 | 18.5
B14 | 0.312
B15 | 27.3
B16 | 56.8
B17 | 3.25
B18 | 71.3
B19 | 26.2
B20 | 58.2
B21 | 53.3
B22 | 16.6
B23 | 13.1
B24 | 2.94
B25 | 0.812
B26 | 3.38
B27 | 87.7
B28 | 17.8
B29 | 6.75
